Article PMC4847857

Assays:
[1] = target: ATP-binding cassette A1 (human (endogenous in THP-1)) (UniProt O95477)
[2] = target: ATP-binding cassette G1 (human (endogenous in THP-1)) (UniProt P45844)

UniProt O95477, sequence (O95477 whole entry): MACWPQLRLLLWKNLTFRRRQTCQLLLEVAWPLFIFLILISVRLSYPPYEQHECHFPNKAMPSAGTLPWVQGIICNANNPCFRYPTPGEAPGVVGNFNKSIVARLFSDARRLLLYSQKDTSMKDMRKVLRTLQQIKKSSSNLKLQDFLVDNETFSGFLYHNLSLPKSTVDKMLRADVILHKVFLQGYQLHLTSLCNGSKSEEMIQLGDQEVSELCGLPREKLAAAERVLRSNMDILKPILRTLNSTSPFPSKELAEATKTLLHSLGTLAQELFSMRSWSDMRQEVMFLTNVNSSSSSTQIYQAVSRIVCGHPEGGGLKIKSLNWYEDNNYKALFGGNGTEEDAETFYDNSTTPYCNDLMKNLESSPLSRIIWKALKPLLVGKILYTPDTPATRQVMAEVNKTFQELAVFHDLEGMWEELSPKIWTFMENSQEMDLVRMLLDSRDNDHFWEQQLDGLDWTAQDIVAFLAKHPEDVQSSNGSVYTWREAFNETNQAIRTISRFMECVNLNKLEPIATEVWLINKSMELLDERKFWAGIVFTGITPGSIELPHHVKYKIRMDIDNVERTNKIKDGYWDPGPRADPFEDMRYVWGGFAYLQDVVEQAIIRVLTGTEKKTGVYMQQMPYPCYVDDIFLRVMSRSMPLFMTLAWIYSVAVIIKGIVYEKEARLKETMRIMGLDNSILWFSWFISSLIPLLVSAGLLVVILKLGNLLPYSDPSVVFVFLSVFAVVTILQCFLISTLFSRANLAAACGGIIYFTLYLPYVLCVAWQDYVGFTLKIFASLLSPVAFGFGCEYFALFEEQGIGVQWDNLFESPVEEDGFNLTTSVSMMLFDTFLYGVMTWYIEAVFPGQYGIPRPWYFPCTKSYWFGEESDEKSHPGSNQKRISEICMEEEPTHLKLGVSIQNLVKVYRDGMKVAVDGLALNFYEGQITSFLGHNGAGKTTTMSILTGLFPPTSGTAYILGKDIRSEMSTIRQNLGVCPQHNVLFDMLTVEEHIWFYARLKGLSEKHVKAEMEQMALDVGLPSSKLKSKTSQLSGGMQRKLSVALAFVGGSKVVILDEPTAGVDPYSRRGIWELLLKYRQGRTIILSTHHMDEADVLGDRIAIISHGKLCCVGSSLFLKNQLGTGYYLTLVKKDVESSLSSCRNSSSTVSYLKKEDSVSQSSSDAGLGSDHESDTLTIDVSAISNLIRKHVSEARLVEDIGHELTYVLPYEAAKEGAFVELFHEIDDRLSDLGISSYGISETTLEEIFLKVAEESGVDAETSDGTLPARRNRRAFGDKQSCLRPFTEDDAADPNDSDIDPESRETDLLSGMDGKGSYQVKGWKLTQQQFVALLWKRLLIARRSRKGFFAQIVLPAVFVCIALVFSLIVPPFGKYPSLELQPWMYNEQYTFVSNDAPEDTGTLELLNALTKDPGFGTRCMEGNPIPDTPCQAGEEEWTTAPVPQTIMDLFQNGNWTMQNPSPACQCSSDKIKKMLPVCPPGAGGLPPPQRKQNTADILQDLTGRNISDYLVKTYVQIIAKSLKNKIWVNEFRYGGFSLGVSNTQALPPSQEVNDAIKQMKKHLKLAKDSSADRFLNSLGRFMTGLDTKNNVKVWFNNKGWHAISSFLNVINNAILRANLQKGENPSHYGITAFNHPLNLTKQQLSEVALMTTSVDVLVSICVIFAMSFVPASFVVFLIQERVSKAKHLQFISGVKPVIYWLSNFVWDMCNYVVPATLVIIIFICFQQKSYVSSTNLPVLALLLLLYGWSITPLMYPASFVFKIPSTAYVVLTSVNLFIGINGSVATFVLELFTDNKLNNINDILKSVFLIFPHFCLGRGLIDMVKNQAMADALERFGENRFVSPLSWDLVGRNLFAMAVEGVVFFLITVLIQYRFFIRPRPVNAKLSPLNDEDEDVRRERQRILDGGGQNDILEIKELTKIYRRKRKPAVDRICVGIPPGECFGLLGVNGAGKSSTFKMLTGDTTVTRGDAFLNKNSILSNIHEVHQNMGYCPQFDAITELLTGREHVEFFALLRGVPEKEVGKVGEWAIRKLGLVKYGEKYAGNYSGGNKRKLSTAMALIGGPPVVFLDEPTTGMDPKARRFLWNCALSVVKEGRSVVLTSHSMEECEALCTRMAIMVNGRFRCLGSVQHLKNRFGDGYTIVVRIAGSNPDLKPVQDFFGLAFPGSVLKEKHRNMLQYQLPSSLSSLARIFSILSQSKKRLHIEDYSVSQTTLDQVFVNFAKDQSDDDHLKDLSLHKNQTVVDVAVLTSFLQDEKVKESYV

Substance: human apoA-1 from human plasma (from UniProt P02647 19-267) (ligand)
- cholesterol efflux from [H^3]-cholesterol-loaded THP-1 macrophages to apoA-I (10 μg/ml) after heat-killed L. acidophilus K301; no effect in the absence of apoA-I [1]: 2.3 fold
- cholesterol efflux from [H^3]-cholesterol-loaded THP-1 macrophages to apoA-I (10 μg/ml) after heat-killed L. acidophilus K301; no effect in the absence of apoA-I [2]: 2.3 fold
